Data published in PMC2850170 (The Biochemical journal, 2009).

Target: the molecule itself
Experiment: SEC

B1: murine hexosaminidase D, short form (enzyme, mouse, UniProt Q3U4H6 1-486, looked up)
chain: MSSPTPFKMRLVHLDLKGAPPKVSYLSEVFPLFHALGANGLLIEYEDMFPYEGHLRLLRAKHAYSPSEVTEILRLARLSELEVIPLVQTFGHMEFVLKHAAFAHLREVALFPNTLNPHEAESLALVQAMIDQILELHRDVRWLHIGCDEVYYLGEGETSKQWLQQEQNSHAKLCLSHMQAVASHVLTQHPGVTPLVWDDMLRDIPQEQLKASGVPQLVEPVLWDYGADLDVHGKVFLIGKYQECGFQRLWAASAFKGATGASQALPPVEHHIRNHELWLQVAGSGPKDALQGIILTGWQRYDHFSVLCELLPVGIPSLAACLQSLVHGGFAEDVRLRAERFLGVSSLEIADTVSEGAGSFPGSDIHALVTQISLHLRSSVDTLLERNRYVTGWFSPYHRRRKLVHPVMIQHIQPEALSLLSRWNNLVQQLEVALQPVFYPDTIEEWLEENVLPSLQRLQDLLQDLGEAAARQPPPTSPGWDTGQNP
**Q.** How did the “stoichiometry N” value turn out when B1 was run?
**A.** 2
